Patent US10005846 (LIFEARC, dated 2018)

T1: TG13
T1 construct: also called Factor XIIIa
T1 chain: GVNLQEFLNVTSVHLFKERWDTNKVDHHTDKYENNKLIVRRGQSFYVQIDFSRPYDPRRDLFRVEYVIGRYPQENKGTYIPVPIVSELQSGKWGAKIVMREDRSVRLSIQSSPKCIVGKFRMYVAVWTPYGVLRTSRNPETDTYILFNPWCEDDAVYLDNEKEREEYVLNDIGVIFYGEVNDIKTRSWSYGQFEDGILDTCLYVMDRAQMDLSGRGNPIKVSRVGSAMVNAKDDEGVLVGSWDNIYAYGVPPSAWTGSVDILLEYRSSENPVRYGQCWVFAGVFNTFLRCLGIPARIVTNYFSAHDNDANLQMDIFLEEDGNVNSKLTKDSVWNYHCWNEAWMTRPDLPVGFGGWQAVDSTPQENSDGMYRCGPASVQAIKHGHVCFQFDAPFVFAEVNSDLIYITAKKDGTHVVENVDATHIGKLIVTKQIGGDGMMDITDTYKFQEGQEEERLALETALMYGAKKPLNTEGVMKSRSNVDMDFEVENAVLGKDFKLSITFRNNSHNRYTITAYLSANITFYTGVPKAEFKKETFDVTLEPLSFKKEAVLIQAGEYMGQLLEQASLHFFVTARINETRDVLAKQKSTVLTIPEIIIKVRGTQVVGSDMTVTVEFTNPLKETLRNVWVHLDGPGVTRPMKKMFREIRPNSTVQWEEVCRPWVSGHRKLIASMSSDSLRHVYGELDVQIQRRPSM

T2: TG7 (human, UniProt Q96PF1)
T2 construct: recombinant, Zedira; also called recombinant human TG7
T2 sequence (enzyme, looked up): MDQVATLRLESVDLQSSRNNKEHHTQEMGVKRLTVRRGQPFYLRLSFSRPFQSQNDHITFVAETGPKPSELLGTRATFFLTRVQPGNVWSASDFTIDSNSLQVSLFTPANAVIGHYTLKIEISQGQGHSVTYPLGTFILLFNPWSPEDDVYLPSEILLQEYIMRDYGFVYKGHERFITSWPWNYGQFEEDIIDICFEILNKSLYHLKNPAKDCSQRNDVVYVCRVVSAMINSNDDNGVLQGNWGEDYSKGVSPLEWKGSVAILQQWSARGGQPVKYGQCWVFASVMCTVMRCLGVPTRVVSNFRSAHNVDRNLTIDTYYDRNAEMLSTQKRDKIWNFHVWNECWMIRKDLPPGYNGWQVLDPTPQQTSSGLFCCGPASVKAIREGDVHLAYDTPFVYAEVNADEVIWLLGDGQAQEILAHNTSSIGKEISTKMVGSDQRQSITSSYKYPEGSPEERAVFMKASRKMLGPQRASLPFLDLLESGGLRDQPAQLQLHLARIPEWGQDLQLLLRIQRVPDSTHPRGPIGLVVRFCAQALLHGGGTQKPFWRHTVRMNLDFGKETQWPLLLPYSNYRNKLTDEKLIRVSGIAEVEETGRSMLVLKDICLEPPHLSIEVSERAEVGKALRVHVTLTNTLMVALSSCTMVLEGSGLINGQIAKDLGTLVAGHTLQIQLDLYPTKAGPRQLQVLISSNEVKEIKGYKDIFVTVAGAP

T3: mouse TG2 (mouse, UniProt P21981 1-686, limits assumed)
T3 sequence: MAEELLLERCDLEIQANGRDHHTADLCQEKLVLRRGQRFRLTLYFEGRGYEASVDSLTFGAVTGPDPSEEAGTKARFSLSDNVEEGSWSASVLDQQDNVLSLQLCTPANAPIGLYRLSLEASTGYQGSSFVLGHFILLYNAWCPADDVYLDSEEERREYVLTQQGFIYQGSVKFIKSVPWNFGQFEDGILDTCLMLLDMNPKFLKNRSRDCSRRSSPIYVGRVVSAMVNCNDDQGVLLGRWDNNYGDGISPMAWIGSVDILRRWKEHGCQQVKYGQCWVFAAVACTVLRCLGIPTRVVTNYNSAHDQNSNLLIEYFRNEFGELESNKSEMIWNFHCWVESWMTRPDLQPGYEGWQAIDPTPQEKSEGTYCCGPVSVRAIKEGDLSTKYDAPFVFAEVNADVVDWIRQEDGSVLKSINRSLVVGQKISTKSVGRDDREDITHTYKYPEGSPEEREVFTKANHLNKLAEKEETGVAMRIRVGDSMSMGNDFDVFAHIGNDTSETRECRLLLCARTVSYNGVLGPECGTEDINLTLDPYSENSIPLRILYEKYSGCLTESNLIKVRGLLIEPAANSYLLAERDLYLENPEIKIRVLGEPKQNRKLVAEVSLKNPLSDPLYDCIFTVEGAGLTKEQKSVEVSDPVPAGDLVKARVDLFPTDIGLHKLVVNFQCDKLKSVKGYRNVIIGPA


Tests used:
[1] = molecular target: T1, TG13; test: ELISA, hybridoma conditioned medium, plates coated with recombinant TG (100 ng/well) [panel A]
Protocol: (§1) Conditioned medium or purified IgG were tested for reactivity to transglutaminase family members. The ability of each to bind to each transglutaminase (TG1, TG2, TG3, TG5, TG7 and Factor XIIIa; all Zedira) was determined using a plate binding assay. Microtiter plates (Costar, Cambridge, UK) were coated with recombinant TG (Zedira, Darmstadt, Germany) in 50 μl of 0.1 M bicarbonate/carbonate buffer (pH 9.6) overnight at 4° C. Plates were blocked for 2 h at 37° C. with 200 μl PBS containing 3% w/v BSA. Plates were washed three times with PBS containing 0.05% Tween 20 (washing buffer) and 100 μl of diluted conditioned medium (dilution 1:5 to 1:20) or purified anti-TG2 catalytic core mAbs was added. Plates were incubated for a further 1 h at room temperature. The washing step was repeated and anti-mouse gamma chain-horseradish peroxidase (1:5000) in PBS containing 0.05% Tween 20 (v:v) and 1% BSA (w:v) (Sigma, Poole UK) was added for 1 h. […] The reaction was stopped by adding 25 μl of 0.1 M H_2SO_4 and the absorbance at 450 nm was determined.

[2] = molecular target: T2, TG7; test: ELISA, purified IgG at 0.1 ug/ml, plates coated with 100 ng of each TG [panel B]
Protocol: as §1

[3] = molecular target: T3, mouse TG2; test: western blot and ELISA

Binder	binding result [1]	binding result [2]	binding result [3]
AB1 murine monoclonal antibody (antibody, V domains shown, Mouse hybridoma IgG; heavy chain amplified with constant region primer MHCG1, kappa light chain; also called mAB003) VH: EVQLVESGGGLVKPGGSLKLSCAASGFTLSSSAMSWVRQTPDRRLEWVATISVGGGKTYYPDSVKGRFTISRDNAKNTLYLQMNSLRSEDTAMYYCAKLISLYWGQGTTLTVSS VL: DIKMTQSPSSMYASLGERVTITCKASQDINSYLTWFQQKPGKSPKTLIYRTNRLFDGVPSRFSGSGSGQDFFLTISSLEYEDMGIYYCLQYDDFPYTFGGGTKLEIK	no binding	no binding (tested: 0.1 ug/ml)	
BB7 murine monoclonal antibody (antibody, V domains shown, Mouse hybridoma IgG; heavy chain amplified with primer MHCG1, kappa light chain; also called mBB001) VH: AVQLVESGGGLVKPGGSLKLSCAASGIIFSSSAMSWVRQTPEKRLEWVATISSGGRSTYYPDSVKGRFTVSRDSAKNTLYLQMDSLRSEDTAIYYCAKLISPYWGQGTTLTVSS VL: AIKMTQSPSSMYASLGERVIITCKASQDINSYLTWFQQKPGKSPKTLIYLTNRLMDGVPSRFSGSGSGQEFLLTISGLEHEDMGIYYCLQYVDFPYTFGGGTKLEIK	no binding		binds
DC1 murine monoclonal antibody (antibody, V domains shown, Mouse hybridoma IgG; heavy chain amplified with primer MHCG1, kappa light chain; also called mDC001) VH: EVQLVESGGGLVKPGGSLKLSCAASGFTLSTHAMSWVRQTPEKRLEWVATISSGGRSTYYPDSVKGRFTISRDNVKNTLYLQLSSLRSEDTAVYFCARLISTYWGQGTTLTVSS VL: DITMTQSPSSIYASLGERVTITCKASQDINSYLTWFQQKPGKSPKILIYLVNRLVDGVPSRFSGSGSGQDYALTISSLEYEDMGIYYCLQYDDFPYTFGGGTKLEIK		no binding (tested: 0.1 ug/ml)	binds
DH2 murine monoclonal antibody (antibody, V domains shown, Mouse hybridoma IgG; heavy chain amplified with primer MHCG2B, kappa light chain; also called mDH001) VH: not shown VL: QIVLTQSPAIMSASPGEKVTMTCSASSSVSYMYWYQQKPGSSPRLLIYDTSNLASGVPVRFSGSGSGTSYSLTISRMEAEDAATFYCQQWSSSPLTFGAGTKLELK	no binding	no binding (tested: 0.1 ug/ml)	binds
DD9 murine monoclonal antibody (antibody, V domains shown, Mouse hybridoma IgG; heavy chain amplified with primer MHCG2A, kappa light chain; also called mDD9001) VH: not shown VL: QIVLTQSPAIMSASPGEKVTMTCSASSSVDYMYWYQQKPGSSPRLLIYDTSNLASGVPVRFSGSGSGTSYSLTISRMGAEDAATYYCQQWNSSPLTFGAGTKLELK	no binding	no binding (tested: 0.1 ug/ml)	binds
AG9 murine monoclonal antibody (antibody, V domains shown, Mouse hybridoma IgG; heavy chain amplified with primer MHCG1, kappa light chain) VH: EVQLQQSGPELVKPGASVKMSCRASGYTFTTYVIHWVKQKPGQGLEWIGYINPYNDGARYNEKFKGKATLTSDKSSTTAYMELSSLTSEDSAVYYCARLSSDYWGQGTTLTVSS VL: DVLMTQNPLSLPVSLGDQASISCRSSRSIEHSNGNTYLEWYLQKPGQSPKFLIYKVSNRFSGVPDRFSGSGSGTDFTLRISSVEAEDLGVYYCFQGSHVPFTFGGGTKLEIK	no binding	no binding (tested: 0.1 ug/ml)	
EH6 murine monoclonal antibody (antibody, V domains shown, Mouse hybridoma IgG; heavy chain amplified with primer MHCG2B, kappa light chain) VH: EVQLQQSGPELVKPGASVKMSCKASGYTFTSYVMHWVKQKPGQGLEWIGFINPYNDGTKYNEKFKGKATLTSDKASTTAYMELSSLTSEDSAVYYCARFSSGYWGQGTTLTVSS VL: DVLMTQTPLSLPVSLGDQASISCRSSQSIVHSNGNTYLEWYLQKPGQSPKLLIYKVSNRFSGVPDRFSGSGSGTDFTLKISRVGAEDLGVYYCLQVSHVPFTFGSGTKLEIK	no binding	no binding (tested: 0.1 ug/ml)	binds
AH3 murine monoclonal antibody (antibody, V domains shown, Mouse hybridoma IgG; heavy chain amplified with primer MHCG2B, kappa light chain) VH: EVQLQQSGPELVKPGASVKMSCRASGYTFTTYVIHWVKQKPGQGLEWIGYINPYNDGARYNEKFKGKATLTSDKSSTTAYMELSSLTSEDSAVYYCARLSSDYWGQGTTLTVSS VL: DVLMTQNPLSLPVSLGDQASISCRSSRSIEHSNGNTYLEWYLQKPGQSPKFLIYKVSNRFSGVPDRFSGSGSGTDFTLRISSVEAEDLGVYYCFQGSHVPFTFGGGTKLEIK	no binding	no binding (tested: 0.1 ug/ml)	
JE12 murine monoclonal antibody (antibody, V domains shown, Mouse hybridoma IgG; heavy chain amplified with primer MHCG1, kappa light chain) VH: EVQLQQSGPELVKPGASVKMSCKASGYRFTSYVMHWVKQKSGQGLEWIGYINPYNDGAKYNEKFKGKATLTSDKSSSTAYMELSSLTSEDSAVYYCARLSSDYWGQGTTLTVSS VL: DVLMTQNPLSLPVSLGDQASISCRSSQSIEHINGNTYLEWYLQKPGQSPKFLIYKVSNRFSGVPDRFSGSGSGTDFTLRISRVEAEDLGIYYCFQGSHVPFTFGGGTKLEIK	no binding	no binding (tested: 0.1 ug/ml)	binds
